10 molecules from patent publication US20200347144A1 (SHANGHAI HYAMAB BIOTECH, published 2020) can be followed below.

Test [1] deals with T1, monkey 4-1BB-his protein (monkey).
T1 construct: extracellular domain; Bought protein; also called extracellular domain of monkey-derived 4-1BB protein
Kind of test: ELISA, coated monkey 4-1BB-his; Ab 0.4 ug/ml. The procedure: (§1) The purified immunogen A (4-1BB-hFc), monkey 4-1BB-his, and mouse 4-1BB-his obtained in Example 1 [for the preparation method, see step 1 of Example 1, preparation of immunogen A], of which the extracellular domain of monkey-derived 4-1BB protein (purchased from ACRO biosystems), the extracellular domain of mouse 4-1BB protein (purchased from sino biological) or other immune detection point proteins respectively were diluted with PBS to a final concentration of 1.0 μg/mL, then added with […] per well to 96-well ELISA plate. It was sealed with plastic film and incubated at 4° C. overnight. The next day, the plate was washed twice with the plate-washing solution [PBS containing 0.01% (v/v) Tween20] and blocking solution [PBS containing 0.01% (v/v) Tween 20 and 1% (v/v) BSA] was added and blocked at room temperature for 2 hours. The blocking solution was discarded and 100 μl of the purified 4-1BB antibody obtained in Example 2 was added per well. After incubated at 37° C. for 2 hours, the plate was washed 3 times with a plate-washing solution [PBS containing 0.01% (v/v) Tween20]. A secondary antibody (purchased from Sigma) labeled with HRP (horseradish peroxidase) was added, and after incubated at 37° C. for 2 hours, the plate was washed 3 times with a plate-washing solution [PBS containing 0.01% (v/v) Tween20]. 100 μl of TMB substrate was added per well. After incubated for 30 minutes at room temperature, 100 μl of stop buffer (1.0N HCl) was added per well. The A450 nm values were read using an ELISA plate reader (SpectraMax 384plus, Molecular Device).

Test [2] concerns the target T1, monkey 4-1BB-his protein. Kind of test: ELISA, coated monkey 4-1BB-his; Ab 2 ug/ml. How it is done: as §1
For orientation: In an ELISA, binding on a coated surface is turned into a signal by an enzyme label.

In test [3] the target is T1, monkey 4-1BB-his protein. Kind of test: ELISA, coated monkey 4-1BB-his; Ab 0.0006 ug/ml. How it is done: as §1
Test [4] concerns the target T1, monkey 4-1BB-his protein. Kind of test: ELISA, coated monkey 4-1BB-his; Ab 0.016 ug/ml. The procedure:
as §1

Test [5] has as its target T1, monkey 4-1BB-his protein. Kind of test: ELISA, coated monkey 4-1BB-his; Ab 0.0001 ug/ml. The procedure: as §1
Test [6] has as its target T1, monkey 4-1BB-his protein. Kind of test: ELISA, coated monkey 4-1BB-his; Ab 10 ug/ml. How it is done: as §1
Test [7] has as its target T2, mouse 4-1BB protein (extracellular domain) (mouse, UniProt P20334 24-187).
T2 construct: extracellular domain; also called mouse 4-1BB-his; mouse 4-1BB-hFc protein
T2 sequence (looked up): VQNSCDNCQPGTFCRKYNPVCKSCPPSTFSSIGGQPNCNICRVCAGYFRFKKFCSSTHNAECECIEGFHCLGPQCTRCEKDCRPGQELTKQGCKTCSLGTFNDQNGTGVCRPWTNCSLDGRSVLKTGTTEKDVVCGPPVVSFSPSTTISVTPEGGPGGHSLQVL
Kind of test: ELISA, coated mouse 4-1BB; Ab 0.0006 ug/ml. How it is done:
as §1

For test [8], the target named is T2, mouse 4-1BB protein (extracellular …). Kind of test: ELISA, coated mouse 4-1BB; Ab 0.08 ug/ml. How it is done: as §1
For test [9] the target is unchanged. Kind of test: ELISA, coated mouse 4-1BB; Ab 0.016 ug/ml. The procedure:
as §1

Test [10] shares this target. Kind of test: ELISA, coated mouse 4-1BB; Ab 0.4 ug/ml. How it is done: as §1
Test [11] shares this target. Kind of test: ELISA, coated mouse 4-1BB; Ab 10 ug/ml. The procedure:
as §1

Test [12] shares this target. Kind of test: ELISA: mouse 4-1BB protein coated at 1.0 µg/mL (target by Table 10; the legend paragraph 119 says monkey 4-1BB-hFc), antibody titrated, HRP secondary antibody, OD450. How it is done: as §1
Test [13] has the same target. Kind of test: ELISA, coated mouse 4-1BB; Ab 0.0032 ug/ml. How it is done:
as §1

For test [14] the target is unchanged. Kind of test: ELISA, coated mouse 4-1BB; Ab 0.0001 ug/ml. How it is done: as §1
For test [15], the target named is T3, monkey 4-1BB on CHOK1 cells (monkey).
T3 construct: whole, on cells; also called CHOK1-c4-1BB
Kind of test: FACS on CHOK1-c4-1BB cells, Alexa 488 secondary antibody, average fluorescence intensity. The text has this:
The pIRES plasmid carrying the full-length gene of monkey-derived […] (the preparation method is the same as the preparation method of the pCpC vector carrying the human-derived IgG Fc fragment (hFc) in “Preparation of immunogen A” of the step (1) in Example 1, in which the database accession number of the amino acid sequence of the extracellular region of monkey 4-1BB protein (Phe19-Thr239) is G7PSE7) was transfected into CHOK1 cell line to obtain CHOK1 stable transfected cell line containing monkey 4-1BB (herein referred to as CHOK1-c4-1BB stable cell line). The CHOK1-h4-1BB stable cell line and the CHOK1-c4-1BB stable cell line were expanded and cultivated to 90% confluence in T-75 cell culture flasks. The medium was exhausted, and washed twice with HBSS buffer (Hanks Balanced Salt Solution, purchased from Invitrogen), and then the cells were treated and collected with enzyme-free cell dissociation solution (Versene solution, purchased from Life Technology). The cells were washed twice with HBSS buffer, and after cell counting, the cells were diluted with HBSS buffer to 2×10⁶ cells per ml, and 1% goat serum blocking solution was added, the percentage being the mass percentage. It was incubated on ice for 30 minutes, and then washed twice with HBSS buffer by centrifugation. The collected cells were suspended in FACS buffer (HBSS containing 1% BSA, the percentage was the mass percentage) to 2×10⁶ cells/mL, and 100 μl per well was added to a 96-well FACS reaction plate. The purified 4-1BB antibody test sample obtained in Example 2 was added, 100 microliters per well and incubated on ice for 2 hours. […] It was washed three times with FACS buffer by centrifugation, and 100 μl of fixative [4% (v/v) paraformaldehyde] per well was added to suspend cells, and washed twice with FACS buffer after 10 minutes by centrifugation. The cells were suspended with 100 microliters of FACS buffer, and the results were detected and analyzed with FACS (FACS Calibur, purchased from BD).

Changes are numbered by the printed parent chain.

One may read the EC50 (read off the curve) as the concentration that produces a half-maximal response.

B1: 119B6G5 (antibody, V domains shown)
VH: EVQLLESGGGLVQPGGSLRLSCAASGFTFSNYAMSWVRQGPGKGLEWVSTIIGSGDSTYYTDSVKGRFTISRDNSKNTLFLQMNSLRAEDTAVYYCARDKSGWYYFDYWGQGTLVTVSS
VL: DIQMTQSPSTLSASVGDRVTITCRASQSISNWLAWYQQKPGKAPKLLIYKASSLESGVPSRFSGSGSGTEFTLTISSLQPDDFATYYCQQYNDYFPITFGQGTRLEIK
Consider B1, for which the OD450 nm with monkey 4-1BB-his protein [1] was found to be 2.54 OD450 nm; in the test with monkey 4-1BB-his protein [2], 2.46 OD450 nm; with monkey 4-1BB-his protein [3], 0.11 OD450 nm; in the test with monkey 4-1BB-his protein [4] it was 0.77 OD450 nm; with monkey 4-1BB-his protein [5], 0.08 OD450 nm; with monkey 4-1BB-his protein [6], 2.48 OD450 nm.

B2: 170D7F2 (antibody, V domains shown)
VH: QVQLVQSGAEVKKPGASVKVSCKASGYTFTSYDINWVRQATGQGLEWMGWMNPNSGNTGYAQKFQGRVTMTRNTSISTAYMELSSLRSEDTAVYYCARETGPFDYWGQGTLVTVSS
VL: DIQMTQSPSSLSASVGDRVTITCRASQRINNYLNWYQQKPGKAPKLLIYGASSLQSGVPSRFSGSGSGTDFTLTISSLQPEDFATYYCQQSYSTPFTFGPGTKVDIK
Take B2: the OD450 nm in [7] stood at 0.05 OD450 nm; in test [8] it was 0.1 OD450 nm; in test [9], 0.18 OD450 nm; in test [10], 0.12 OD450 nm; in test [11], 0.27 OD450 nm; in [13], 0.14 OD450 nm. In test [14], this molecule gave an OD450 nm of 0.05 OD450 nm. Moreover, the binding result in test [12] was “no binding (tested: 10 µg/ml)”.

B3: 182A5B3 (antibody, V domains shown)
VH: B2 VH with A61V
VL: not shown
For B3, in test [15], the “EC50 (read off the curve)” value is about 0.4 µg/mL.

B4: 172E3E3 (antibody, V domains shown)
VH: QVQLQESGPGLVKPSGTLSLTCAVSGGSISSSNWWSWVRQPPGKGLEWIGEIYHSGSTNYNPSLKSRVTISVDKSKNQLSLNLSSVTAADTAVYYCARQGGVAGTLYWYFDLWGRGTLVTVSS
VL: DIVMTQSPLSLPVTPGEPASISCRSSQGLLHSNGYNYLDWYLQKPGQSPQLLIYLGSNRASGVPDRFIGSGSGTDFTLKIRRVEAEDVGVYYCMQVLQTPWTFGQGTKVEIK
In the case of B4, the OD450 nm in test [7] was 0.05 OD450 nm; in test [8] it was 0.05 OD450 nm; in test [9], 0.05 OD450 nm; in [10] it was 0.06 OD450 nm; in [11], 0.3 OD450 nm; in [13], 0.05 OD450 nm. The molecule also had an OD450 nm in test [14] of 0.05 OD450 nm. The binding result in [12] is reported as “no binding (tested: 10 µg/ml)”.

B5: 289B6G6 (antibody, V domains shown)
VH: QVQLQESGPGLVRPSETLSLTCAVSGYSISSGYYWGWIRQPPGKGLEWIGSIFHSGNTYYNPSLKSRVIVSGDTSKNQFSLKLSSVTAADTAVYYCTRESSGFNVFDIWGQGTMVTVSS
VL: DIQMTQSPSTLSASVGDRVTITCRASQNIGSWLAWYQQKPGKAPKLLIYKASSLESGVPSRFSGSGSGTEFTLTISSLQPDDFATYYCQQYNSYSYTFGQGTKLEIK
In the case of B5, the concentration giving a half-maximal response (EC50 (read off the curve)) in test [15] is about 0.2 µg/mL.

B6: 263A11E3 (antibody, V domains shown)
VH: QVQLQESGPGLVKPSETLSLTCAVSGYSISSGYYWGWIRQPPGKGLEWIGSIYHSGSTSYNPSLRSRVTISVDTSKNQFSLKLSSVTAADTAVYYCARDAGGFDYWGQGTLVTVSS
VL: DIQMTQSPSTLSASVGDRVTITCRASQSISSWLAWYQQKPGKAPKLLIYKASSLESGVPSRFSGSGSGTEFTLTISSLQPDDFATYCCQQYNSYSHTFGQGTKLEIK
Take B6: the OD450 nm is 0.14 OD450 nm with monkey 4-1BB-his protein [1]; 0.39 OD450 nm with monkey 4-1BB-his protein [2]; 0.07 OD450 nm in the test with monkey 4-1BB-his protein [3]; 0.07 OD450 nm with monkey 4-1BB-his protein [4]; 0.07 OD450 nm in the test with monkey 4-1BB-his protein [5]; 0.87 OD450 nm with monkey 4-1BB-his protein [6].

B7: 118F3A2 (antibody, V domains shown)
VH: QVQLQQWGAGLLKPSETLSLTCGVYGGSFSTNYWSWIRQSPGKGLEWIGEINHSGNTEYNPSLKSRLTISIDTSKNQFSLKLTSVTAADTAVYYCARMGYHSPSFDFWGQGVLVTVSS
VL: KIVMTQSPATLSVSPGERATLPCRVSQGIGSNLAWYQQKPGQAPRLLIYGASTRATGVPARFSGSGSGSEFTLTISSLQSEDLALYYCQQYNNWPLTFGGGTKVEIK
As for B7, the OD450 nm in test [7] was found to be 0.05 OD450 nm; in test [8] it was 0.12 OD450 nm; in [9], 0.09 OD450 nm; in test [10] it was 0.06 OD450 nm; in test [11], 0.31 OD450 nm; in [13] it was 0.11 OD450 nm. In test [14], this molecule showed an OD450 nm of 0.05 OD450 nm. In [12], the binding result was “no binding (tested: 10 µg/ml)”.

B8: 23G3B8 (antibody, V domains shown)
VH: QVQLQESGPGLVKPSETLSLTCAVSAYSISSGYYWGWIRQPPGKGLEWIGSIFHSGSNYYNPSLKSRVTISVDPSKNQFSLKLSSVTVADTAVYYCARESSGYNCFDYWGQGTLVTVSS
VL: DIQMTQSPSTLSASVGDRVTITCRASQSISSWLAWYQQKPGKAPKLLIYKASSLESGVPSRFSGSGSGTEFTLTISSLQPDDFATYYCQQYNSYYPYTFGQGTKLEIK
For the molecule B8, in test [15], the “EC50 (read off the curve)” value was about 0.2 µg/mL.

B9: 258F5A8 (antibody, V domains shown)
VH: QVQLVESGGGVVQPGRSLRLSCAASGFTFSSYGMHWVRQAPGKGLEWVAVIWYDGSNKYYADSVKGRFNISRDNSKNTLYLQMNSLRAEDTAVYYCARGPYLYSSGWYDYYYYGMDVWGQGTTVTVSS
VL: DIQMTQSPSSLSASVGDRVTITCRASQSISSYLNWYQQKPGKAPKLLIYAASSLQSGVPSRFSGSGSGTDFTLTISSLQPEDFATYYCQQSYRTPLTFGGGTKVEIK
As for B9, the OD450 nm with monkey 4-1BB-his protein [1] was determined as 1.32 OD450 nm; with monkey 4-1BB-his protein [2], 1.78 OD450 nm; with monkey 4-1BB-his protein [3], 0.07 OD450 nm; with monkey 4-1BB-his protein [4] it was 0.13 OD450 nm; with monkey 4-1BB-his protein [5], 0.07 OD450 nm; with monkey 4-1BB-his protein [6], 1.98 OD450 nm.

B10: 259G10E11 (antibody, V domains shown)
VH: B9 VH with N69T
VL: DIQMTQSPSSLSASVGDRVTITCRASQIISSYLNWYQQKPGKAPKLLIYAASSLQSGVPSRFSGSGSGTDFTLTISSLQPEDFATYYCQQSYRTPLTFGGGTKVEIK
Consider B10, for which the OD450 nm with monkey 4-1BB-his protein [1] came out at 1.18 OD450 nm; with monkey 4-1BB-his protein [2], 1.51 OD450 nm; with monkey 4-1BB-his protein [3], 0.07 OD450 nm; in the test with monkey 4-1BB-his protein [4], 0.12 OD450 nm; with monkey 4-1BB-his protein [5], 0.07 OD450 nm; with monkey 4-1BB-his protein [6], 1.83 OD450 nm.
